The DeepSol protein solubility set

Experiment: soluble on expression in E. coli; label from the status in PepcDB or PDB records

Sequence | soluble on expression in E. coli
VEQSANAFLLVNCNGVVEYVNPSFTAITQYSSEEVSGNKLSELPALENLNQLLLEANSSLTSSNSWQGEFKSRRKNLEPYWGQLSISKVYGDNRELTHYIGIYEDIT | not soluble
VFLDFEKGIEEFEAKIEQLRFAQDNSALDISAEIARLQTKSLGLTKSVYAKLTPWQISQVARHPQRPYTLDYVQHLFTDFEELHGDRNFADDQAIVGGLARFNGQTVMIIGHQKGRDTKEKIHRNFGMPKPEGYRKALRLMRLAEKFSI | not soluble
VGDLYYHVGVNATFIKNELTEVNGSRDEWQGFNPHAKGTITYAKTGHSIGYFNLIKTDGVFQSQQEIDAYVDKNGNKIQPNAQPGDLRFVDYNGDGKIDNNDRQDVGSAFPKVNLGVSLGAEWKGLDLNMFFDGNFGNKIYNAQYYSTVYNESTGNQYAERMNSWTENNHSDIPRCLFGTSDPNGTNWGYTDRWLENGSFLRLKTLELGYTLPKVWVSKAGLQNVRVYTAMENLFTITDYKGYTPDLGMVDADGAGTSGGSGVMTRGCDDGRYPMARTITFGLQVNF | not soluble
VKIRLHTLLAVLTAAPLLLAAAGCGSKPPSGSPETGAGAGTVATTPASSPVTLAETGSTLLYPLFNLWGPAFHERYPNVTITAQGTGSGAGIAQAAAGTVNIGASDAYLSEGDMAAHKGLMNIALAISAQQVNYNLPGVSEHLKLNGKVLAAMYQGTIKTWDDPQIAALNPGVNLPGTAVVPLHRSDGSGDTFLFTQYLSKQDPEGWGKSPGFGTTVDFPAVPGALGENGNGGMVTGCAETPGCVAYIGISFLDQASQRGLGEAQLGNSSGNFLLPDAQSIQAAAAGFASKTPANQAISMIDGPAPDGYPIINYEYAIVNNRQKDAATAQTLQAFLHWAITDGNKASFLDQVHFQPLPPAVVKLSDALIATISS | soluble
VKPKGAFKAFTGEGQKLGSTAPQVLNTSSPAQQAENEAKASSSILINEAEPTTNIQIRLADGGRLVQKFNHSHRISDIRLFIVDARPAMAATSFVLMTTFPNKELADENQTLKEANLLNAVIVQRLT | soluble
VPGVWSPPCPTTPRVGVVAALVAATLTGCGSGDSTVAKTPEATPSLSTAHPAPPSSEPSPPSATAAPPSNHSAAPVDPCAVNLASPTIAKVVSELPRDPRSEQPWNPEPLAGNYNECAQLSAVVIKANTNAGNPTTRAVMFHLGKYIPQGVPDTYGFTGIDTSQCTGDTVALTYASGIGLNNVVKFRWNGGGVELIGNTTGG | soluble
VPRGSAKGDGVTDDTAALTSALNDTPVGQKINGNGKTYKVTSLPDISRFINTRFVYERIPGQPLYYASEEFVQGELFKITDTPYYNAWPQDKAFVYENVIYAPYMGSDRAGVSRLHVSWVKSGDDGQTWSTPEWLTDLHPDYPTVNYHCMSMGVCRNRLFAMIETRTLAKNALTNCALWDRPMSRSLHLTGGITKAANQRYATIHVPDHGLFVGDFVNFSNSAVTGVSGDMTVATVIDKDNFTVLTPNQQTSDLNNAGKNWHMGTSFHKSPWRKTDLGLIPSVTEVHSFATIDNNGFAMGYHQGDVAPREVGLFYFPDAFNSPSNYVRRQIPSEYEPDASEPCIKYYDGVLYLITRGTRGDRLGSSLHRSRDIGQTWESLRFPHNVHHTTLPFAKVGDDLIMFGSERAENEWEAGAPDDRYKASYPRTFYARLNVNNWNADDIEWVNITDQIYQGGIVNSGVGVGSVVVKDNYIYYMFGGEDHFNPWTYGDNSAKDPFKSDGHPSDLYCYKMKIGPDNRVSRDFRYGAVPNRAVPVFFDTNGVRTVPAPMEFTGDLGLGHVTIRASTSSNIRSEVLMEGEYGFIGKSIPTDNPAGQRIIFCGGEGTSSTTGAQITLYGANNTDSRRIVYNGDEHLFQSADVKPYNDNVTALGGPSNRFTTAYLGSNPIVT | soluble
VQRCVIIQKDQHGFGFTVSGDRIVLVQSVRPGGAAMKAGVKEGDRIIKVNGTMVTNSSHLEVVKLIKSGAYVALTLLGSS | soluble
VRDHLPPGLPPDPFADDPCDPSAALEAVEPGQPLDQQERMAVEADLADLAVYEALLAHKGIRGLVVCCDECQQDHYHDWDMLRSNLLQLLIDGTVRPHEPAYDPEPDSYVTWDYCRGYADASLNEAAPDADRFRRR | soluble
VRQLDSDGFAALMESIPHAISVHDRERNLVFSNPACAALIGYDTAEFADLEHEQLFHPDDAELWGTMLARVLGTESTSATAHLRIRHREGHWIWVRVAASTFTAGAERLVALVLQDESDTIWGNPTAARQPIR | not soluble
VSIDSSRRIIQAIEQNEFHLYCQKIIPAGSNQESSSYYEVLIRMAEEESNLIPPGAFLPFVEKYNLMPRLDSWVVEQVIHYLADQRADPRISFCINLARSTLIDPVFYDRVWKLLNAAGIEPQRICFEIETADVAANLLSAVQFVKKVQQSGCLVSLCSFNHDRGSFDLLKHIQADFLKIDGSLICNILRDAEDLKKVENIGKFARALKIRTIGELVETRNILEKLAKIGIDYAQGFIVGRPLPIEKIEYRADSMDDL | not soluble
VSMDELDPHVARALTLAARFQSALDGTLNQMNNGSFRATDEAETVEVTINGHQWLTGLRIEDGLLKKLGAEAVAQRVNEALHNAQAAASAYNDAAGEQLTAALSAMSRAMNEGMA | soluble
VTLLVKSPNQRHRDLELSGDRGWSVGHLKAHLSRVYPERPRPEDQRLIYSGKLLLDHQCLRDLLPKQEKRHVLHLVCNVK | soluble
VVCREASHAGSWYTASGPQLNAQLEGWLSQVQSTKRPARAIIAPHAGYTYCGSCAAHAYKQVDPSITRRIFILGPSHHVPLSRCALSSVDIYRTPLYDLRIDQKIYGELWKTGMFERMSLQTDEDEHSIEMHLPYTAKAMESHKDEFTIIPVLVGALSESKEQEFGKLFSKYLADPSNLFVVSSDFCHWGQRFRYSYYDESQGEIYRSIEHLDKMGMSIIEQLDPVSFSNYLKKYHNTICGRHPIGVLLNAITELQKNGMNMSFSFLNYAQSSQCRNWQDSSVSYAAGALTVH | soluble
VVLSTAFSQMFGIDYPIVSAPMDLIAGGELAAAVSGAGGLGLIGGGYGDRDWLARQFDLAAGAPVGCGFITWSLARQPQLLDLALQYEPVAVMLSFGDPAVFADAIKSAGTRLVCQIQNRTQAERALQVGADVLVAQGTEAGGHGHGPRSTLTLVPEIVDLVTARGTDIPVIAAGGIADGRGLAAALMLGAAGVLVGTRFYATVEALSTPQARDPLLAATGDDMCRTTIYDQLRRYPWPQGHTMSVLSNALTDQFEDTELDILHREEAMARYWRAVAARDYSIANVTAGQAAGLVNAVLPAADVITGMAQQAARTLTAMRAV | not soluble
WSYEHLHLTNRIKLLYAPTFRDNELGMAKLHLDIAEMKQALGNEYQLILKLHPSISNDLEKLDDDFVIYVDKETPIETLLPVVDILITDYSSIPFEFALLQKPMIFFTYDLTEYNNARGLSDGFLETIPGPHVFTTTELIEVIQNNTFDLEKVRLFAEKWNKYSDGFSSERFVSFLKE | not soluble
YALTEGEDYLVLDKPIPQEQPGKIEVLEFFGYFCVHCHHFDPLLLKLGKALPSDTYLRTEHVVWRPEMLGLARMAAAVKLSGLKYQANSAVFKAVYEQKIRLENRAVAGKWALSQKGFDGKKLMRAYDSPEAAAVALKMQKLTEQYGIDSTPTVIVGGKYRVIFNNGFDGGVHTIKELVAK | not soluble
YANRESLIKRYTLKVLEQIAWLPEAQSLDEAKVQEALEDASQTIDSYLGGRYVLPLKTVPAVLERHCCYIARYFLEKNRATDQARQDYEDTIRFLEKVASGAISLGLSDDDETVESENGAMMESAGSVWGRNT | not soluble
YATQSKNTNILLEYVSANPTGDLHIGHARNAAVGDSLANILIAAGYNVTREYYINDAGNQITNLARSIEARYFEALGDTSYEMPADGYNGKDIIEIGKDLAVKHPEIKDYSDEERLKTFRQLGVDYEMEKLKKDLSDFNVHFDNWFSETSLYENGAIKNTLSKMKELGYTYEADGATWLRTSDFKDDKDRVLIKKDGNYTYFTPDTAYHYNKINRGNDILIDLMGADHHGYINRLKASLETFGVDSDRLEIQIMQMVRLMQNGEEVKMSKRTGNAITLREIMDEVGIDAARYFLTMRSPDSHFDFDLELAKEQSQDNPIYYAQYAHARICSILKQAKE | not soluble
YCTLDDLILSFGQDEIYRLIATDQEAEKALDDAQAEIDMYLSDRYALPVKSVPKSLNRIACDIAHYYLYNSVDEDSTVYLRYKHRIKQLSDVAAGKLSLGLYDKSDDATTDNQVVFIKSSKKVFAR | not soluble
YIYRLGKEKEKNDRLIQSITINQMEARQNEEIINSTHSLRVFKHDIMNHMSILYKLVENGKNSDALKYIYQINNSIERTSYTISTGIIPIDCIMTAKLSKALDNNISIKHQIHFPANYNISDMDLCSLISNLLDNAIEANCKLDMTKRRLQIEIKPYNNMLLLFISNSSNGIYLYGGNGNLLTTKTSNKNEHGIGIKRINEIVKKYNGIIEFDPGTEIFSVSILFPLDN | not soluble
YNGQSETSQQPETPVFNTLPMMGKASPVSLGVPSEATANNGQQQQVQEQRRRINAMLQDYELQRRLHSEQLQFEQAQTQQAAVQVPGIQTLGTQSQ | soluble
YRDINEIDINMNDPLFTKQWYLINTGQADGTPGLDLNVAEAWELGYTGKGVTIGIMDDGIDYLHPDLASNYNAEASYDFSSNDPYPYPRYTDDWFNSHGTRCAGEVSAAANNNICGVGVAYNSKVAGIRMLDQPFMTDIIEASSISHMPQLIDIYSASWGPTDNGKTVDGPRELTLQAMADGVNKGRGGKGSIYVWASGDGGSYDDCNCDGYASSMWTISINSAINDGRTALYDESCSSTLASTFSNGRKRNPEAGVATTDLYGNCTLRHSGTSAAAPEAAGVFALALEANLGLTWRDMQHLTVLTSKRNQLHDEVHQWRRNGVGLEFNHLFGYGVLDAGAMVKMAKDWKTVPERFHCVGGSVQDPEKIPSTGKLVLTLTTDACEGKENFVRYLEHVQAVITVNATRRGDLNINMTSPMGTKSILLSRRPRDDDSKVGFDKWPFMTTHTWGEDARGTWTLELGFVGSAPQKGVLKEWTLMLHGTQSAPYIDQVVRDYQSKLAMSKKEELEEELDEAVERSLKSILNKN | soluble
YRNSIEGLIEKGIRDEEFIPYYQPIVDSRTQEVVGYEVLLRWQKGHQLVPPSLFISAAEDSGLVVKITNQLIQQVHRDLAQIPAPRWVSINVVADHLEQHHLTHLLEELHWPYSERLKFELTERVPIKAMTQAQEEVFYLLKKGYQFKIDDFGTGYGGFAYLQNLQISSIKIDKMFVDTINTHDVKISVLDSIIASAQGGNIEVIAEGVEHQYQVDYLAERNVFWIQGYFYAKP | not soluble
